Ends that are not written are not given here.
What was measured:
[1] = molecular target: Ala mutant peptide (Ala at position 8 of …); experiment: competition phage ELISA; Asp8 to Ala peptide as soluble competitor
[2] = molecular target: T1, unphosphorylated Ser peptide (Ser at position 8 of …) (also: fused to NusA, biotinylated on biotin acceptor peptide (BirA), N-terminal His6 tag); experiment: competition phage ELISA; Asp8 to Ser peptide as soluble competitor
T1 construct: also called Ser/Thr (Ser member); not shown: N-terminal His6 tag and biotin acceptor peptide; NusA, fusion partner
T1 chain: KGNYVVTSH
Source text: Without being bound by theory, the carboxylate group of Asp8 residue might mimic a phosphorylated residue and thus, the Ab can bind peptides with pSer, pThr, or possibly pTyr in place of Asp8 (Table 5).
Various concentrations of Fab-phage were mixed with a fixed concentration of biotinylated peptide and captured on the NeutrAvidin-coated wells for fifteen minutes. The bound phage were then detected using a horseradish peroxidase (HRP)-conjugated anti-M13 monoclonal (GE Healthcare). For phage competition ELISAs, plates were coated with 10 μg/mL NusA-[…] (the native target for the 1i8i Fab and a weak binder to pSAb, pSTAb, and pYAb), and blocked with 2% BSA. Sub-saturating levels of phage were then pre-bound to the various peptide antigens for two hours at 20° C. and then captured on the NusA-peptide coated plates for fifteen minutes. […] Bound scFv-Fc were detected with HRP-conjugated Protein A (Pierce).

[3] = molecular target: T2, unphosphorylated Thr peptide (Thr at position 8 of …); experiment: competition phage ELISA; Asp8 to Thr peptide as soluble competitor
T2 sequence (chain, enzymatically biotinylated on the biotin acceptor peptide (BirA)): KGNYVVTTH

[4] = molecular target: T3, wild-type peptide KGNYVVTDH (NusA-KGNYVVTDH) (also: fused to NusA, biotinylated on biotin acceptor peptide (BirA), N-terminal His6 tag); experiment: SPR (Biacore 4000); biotinylated antigen captured on NeutrAvidin CM5 chip, Fab in flow; 1:1 Langmuir fit
T3 construct: also called WT Asp; the native target for the 1i8i Fab; not shown: N-terminal His6 tag and biotin acceptor peptide; NusA, fusion partner
T3 chain: KGNYVVTDH
Protocol: Surface plasmon resonance data were measured on a Biacore model 4000 (Biacore, Uppsala, Sweden). All proteins were in TBS containing 0.1 mg/mL BSA and 0.01% Tween-20. A Biacore CM5 chip was coated with NeutrAvidin at 3000 RU and biotinylated antigens were captured at <100 RU.

[5] = molecular target: Tyr mutant peptide (Tyr at position 8 of …); experiment: competition phage ELISA; Asp8 to Tyr peptide as soluble competitor

B1: humanized Fab (humanized version of the mouse 1i8i Fab; parent scaffold, CDR H2 loop STGGYN) (Fab, V domains shown)
VH: EVQLVESGGGLVQPGGSLRLSCVTSGFTFRKFGMSWVRQAPGKGLEWVASISTGGYNTYYSDSVKGRFTISRDNSKNTLYLQMNSLRAEDTAVYYCTRGYSSTSYAMDYWGQGTLVTVSS
VL: DIVLTQSPATLSLSPGERATLSCMTSTDIDDDMNWYQQKPGQAPRLLISEGNTLRPGVPARFSGSGSGTDFTLTISSLEPEDFAVYYCLQSFNVPLTFGQGTKVEIKR
notes: also called parent Fab; humanized scaffold
fold less binding than to the wild-type Asp8 peptide [1]: > 100 fold
fold less binding than to the wild-type Asp8 peptide [2]: > 100 fold
fold less binding than to the wild-type Asp8 peptide [3]: > 100 fold
Kd [4]: 9.6 nM
koff [4]: 0.0032 s⁻¹
kon [4]: 338000 M⁻¹ s⁻¹
fold less binding than to the wild-type Asp8 peptide [5]: > 100 fold
